Data as given in the Human Domainome abundance scans (Beltran et al. 2025).
± gives the uncertainty stated by the source.

B1: GAS2-like protein 1, residues 209 to 276; numbered along this chain, Q99501 (parent)
chain: DELVREILGRCTCPDQFPMIKVSEGKYRVGDSSLLIFVRVLRSHVMVRVGGGWDTLEHYLDKHDPCRC

Variants of: B1
Assay: abundance fitness (aPCA) (normalised: wild type 0, dead -1); higher = more abundant; growth selection in yeast, the domain comes from the species named
Conditions: Homo sapiens

Variant | abundance fitness
DELVREILGRCTCPMQFPMIKVSEGKYRVGDSSLLIFVRVLRSHVMVRVGGGWDTLEHYLDKHDPCRC [D15M] | 0.046 ± 0.05
DELVREILGRCTCPNQFPMIKVSEGKYRVGDSSLLIFVRVLRSHVMVRVGGGWDTLEHYLDKHDPCRC [D15N] | 0.087 ± 0.077
DELVREILGRCTCPPQFPMIKVSEGKYRVGDSSLLIFVRVLRSHVMVRVGGGWDTLEHYLDKHDPCRC [D15P] | -0.964 ± 0.21
DELVREILGRCTCPQQFPMIKVSEGKYRVGDSSLLIFVRVLRSHVMVRVGGGWDTLEHYLDKHDPCRC [D15Q] | -0.002 ± 0.081
DELVREILGRCTCPRQFPMIKVSEGKYRVGDSSLLIFVRVLRSHVMVRVGGGWDTLEHYLDKHDPCRC [D15R] | 0.018 ± 0.038
DELVREILGRCTCPSQFPMIKVSEGKYRVGDSSLLIFVRVLRSHVMVRVGGGWDTLEHYLDKHDPCRC [D15S] | 0.026 ± 0.039
DELVREILGRCTCPTQFPMIKVSEGKYRVGDSSLLIFVRVLRSHVMVRVGGGWDTLEHYLDKHDPCRC [D15T] | 0.125 ± 0.059
DELVREILGRCTCPVQFPMIKVSEGKYRVGDSSLLIFVRVLRSHVMVRVGGGWDTLEHYLDKHDPCRC [D15V] | 0.054 ± 0.04
DELVREILGRCTCPWQFPMIKVSEGKYRVGDSSLLIFVRVLRSHVMVRVGGGWDTLEHYLDKHDPCRC [D15W] | -0.32 ± 0.069
DELVREILGRCTCPYQFPMIKVSEGKYRVGDSSLLIFVRVLRSHVMVRVGGGWDTLEHYLDKHDPCRC [D15Y] | -0.151 ± 0.052
DELVREILGRCTCPDAFPMIKVSEGKYRVGDSSLLIFVRVLRSHVMVRVGGGWDTLEHYLDKHDPCRC [Q16A] | -0.224 ± 0.053
DELVREILGRCTCPDEFPMIKVSEGKYRVGDSSLLIFVRVLRSHVMVRVGGGWDTLEHYLDKHDPCRC [Q16E] | -0.42 ± 0.12
DELVREILGRCTCPDFFPMIKVSEGKYRVGDSSLLIFVRVLRSHVMVRVGGGWDTLEHYLDKHDPCRC [Q16F] | -0.623 ± 0.16
DELVREILGRCTCPDGFPMIKVSEGKYRVGDSSLLIFVRVLRSHVMVRVGGGWDTLEHYLDKHDPCRC [Q16G] | -0.131 ± 0.046
DELVREILGRCTCPDHFPMIKVSEGKYRVGDSSLLIFVRVLRSHVMVRVGGGWDTLEHYLDKHDPCRC [Q16H] | -0.486 ± 0.095
DELVREILGRCTCPDIFPMIKVSEGKYRVGDSSLLIFVRVLRSHVMVRVGGGWDTLEHYLDKHDPCRC [Q16I] | -0.351 ± 0.077
DELVREILGRCTCPDKFPMIKVSEGKYRVGDSSLLIFVRVLRSHVMVRVGGGWDTLEHYLDKHDPCRC [Q16K] | 0.113 ± 0.047
DELVREILGRCTCPDMFPMIKVSEGKYRVGDSSLLIFVRVLRSHVMVRVGGGWDTLEHYLDKHDPCRC [Q16M] | -0.276 ± 0.048
DELVREILGRCTCPDNFPMIKVSEGKYRVGDSSLLIFVRVLRSHVMVRVGGGWDTLEHYLDKHDPCRC [Q16N] | -0.634 ± 0.12
DELVREILGRCTCPDPFPMIKVSEGKYRVGDSSLLIFVRVLRSHVMVRVGGGWDTLEHYLDKHDPCRC [Q16P] | 0.131 ± 0.047

Variant | abundance fitness
DELVREILGRCTCPDSFPMIKVSEGKYRVGDSSLLIFVRVLRSHVMVRVGGGWDTLEHYLDKHDPCRC [Q16S] | -0.172 ± 0.041
DELVREILGRCTCPDTFPMIKVSEGKYRVGDSSLLIFVRVLRSHVMVRVGGGWDTLEHYLDKHDPCRC [Q16T] | -0.11 ± 0.044
DELVREILGRCTCPDVFPMIKVSEGKYRVGDSSLLIFVRVLRSHVMVRVGGGWDTLEHYLDKHDPCRC [Q16V] | -0.269 ± 0.043
DELVREILGRCTCPDYFPMIKVSEGKYRVGDSSLLIFVRVLRSHVMVRVGGGWDTLEHYLDKHDPCRC [Q16Y] | -0.848 ± 0.11
DELVREILGRCTCPDQAPMIKVSEGKYRVGDSSLLIFVRVLRSHVMVRVGGGWDTLEHYLDKHDPCRC [F17A] | -0.955 ± 0.15
DELVREILGRCTCPDQCPMIKVSEGKYRVGDSSLLIFVRVLRSHVMVRVGGGWDTLEHYLDKHDPCRC [F17C] | -1 ± 0.23
DELVREILGRCTCPDQGPMIKVSEGKYRVGDSSLLIFVRVLRSHVMVRVGGGWDTLEHYLDKHDPCRC [F17G] | -0.743 ± 0.08
DELVREILGRCTCPDQIPMIKVSEGKYRVGDSSLLIFVRVLRSHVMVRVGGGWDTLEHYLDKHDPCRC [F17I] | -0.846 ± 0.19
DELVREILGRCTCPDQKPMIKVSEGKYRVGDSSLLIFVRVLRSHVMVRVGGGWDTLEHYLDKHDPCRC [F17K] | -0.831 ± 0.13
DELVREILGRCTCPDQLPMIKVSEGKYRVGDSSLLIFVRVLRSHVMVRVGGGWDTLEHYLDKHDPCRC [F17L] | -0.667 ± 0.049
DELVREILGRCTCPDQMPMIKVSEGKYRVGDSSLLIFVRVLRSHVMVRVGGGWDTLEHYLDKHDPCRC [F17M] | -0.777 ± 0.16
DELVREILGRCTCPDQQPMIKVSEGKYRVGDSSLLIFVRVLRSHVMVRVGGGWDTLEHYLDKHDPCRC [F17Q] | -0.88 ± 0.18
DELVREILGRCTCPDQRPMIKVSEGKYRVGDSSLLIFVRVLRSHVMVRVGGGWDTLEHYLDKHDPCRC [F17R] | -0.865 ± 0.1
DELVREILGRCTCPDQSPMIKVSEGKYRVGDSSLLIFVRVLRSHVMVRVGGGWDTLEHYLDKHDPCRC [F17S] | -0.925 ± 0.12
DELVREILGRCTCPDQTPMIKVSEGKYRVGDSSLLIFVRVLRSHVMVRVGGGWDTLEHYLDKHDPCRC [F17T] | -0.858 ± 0.11
DELVREILGRCTCPDQVPMIKVSEGKYRVGDSSLLIFVRVLRSHVMVRVGGGWDTLEHYLDKHDPCRC [F17V] | -0.768 ± 0.082
DELVREILGRCTCPDQWPMIKVSEGKYRVGDSSLLIFVRVLRSHVMVRVGGGWDTLEHYLDKHDPCRC [F17W] | -0.741 ± 0.096
DELVREILGRCTCPDQYPMIKVSEGKYRVGDSSLLIFVRVLRSHVMVRVGGGWDTLEHYLDKHDPCRC [F17Y] | 0.098 ± 0.088
DELVREILGRCTCPDQFCMIKVSEGKYRVGDSSLLIFVRVLRSHVMVRVGGGWDTLEHYLDKHDPCRC [P18C] | -0.512 ± 0.082
